Laboratory results from patent publication US20240010722A1 (published 2024).
Substitutions are numbered along the chain they refer to.

T1: human MAdCAM (human, UniProt Q13477 19-317, limits assumed)
T1 construct: also called huMAdCAM; human MAdCAM-1
T1 sequence (looked up): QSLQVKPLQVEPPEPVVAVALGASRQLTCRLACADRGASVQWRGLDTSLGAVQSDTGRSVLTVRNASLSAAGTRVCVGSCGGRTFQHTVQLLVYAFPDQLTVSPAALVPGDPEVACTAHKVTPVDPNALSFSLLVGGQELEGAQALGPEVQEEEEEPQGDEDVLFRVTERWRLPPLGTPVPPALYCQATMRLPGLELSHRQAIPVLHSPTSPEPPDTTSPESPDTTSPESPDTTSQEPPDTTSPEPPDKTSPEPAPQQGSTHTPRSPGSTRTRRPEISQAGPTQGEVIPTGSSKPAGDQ

B1: MIAB141 (antibody, V domains shown)
VH: EVQLLESGGGLVQPGGSLRLSCAASGFTFSDFWMHWVRQAPGKGLEWISYISGDSGYTNYADSVKGRFTISRDNSKNTLYLQMNSLRAEDTAVYYCARDRPYYYYMDVWGKGTTVTVSS
VL: DIQMTQSPSSLSASVGDRVTITCRASQSISSYLNWYQQKPGKAPKLLIYAASSLQSGVPSRFSGSGSGTDFTLTISSLQPEDFATYYCQQYKSYPVTFGQGTKVEIK
notes: tested with human Fc
B2: MIAB183 (antibody, V domains shown)
VH: B1 VH with D31S, F32Y, I48V, Y50A, D54S, S55G, Y57S, N59Y
VL: B1 VL with I29V, Y32S, N34A
notes: tested with human Fc; also called MIAB183-001
B3: MIAB182 (antibody, V domains shown)
VH: B1 VH with D31S, F32Y, I48V, Y50A, D54S, S55G, Y57S, N59Y
VL: B1 VL with S31R, Y32S, N34A
notes: tested with human Fc; also called MIAB182-001
B4: MIAB175 (antibody, V domains shown)
VH: B1 VH with D31S, F32Y
VL: B1 VL with I29V, S31R, Y32S, N34A
notes: tested with human Fc; also called MIAB175-001
B5: MIAB178 (antibody, V domains shown)
VH: B1 VH with D31S, F32Y, Y50A, D54S, Y57S, N59Y
VL: B1 VL with I29V, S31R, Y32S, N34A
notes: tested with human Fc; also called MIAB178-001
B6: MIAB174 (antibody, V domains shown)
VH: B1 VH with F32Y
VL: B1 VL with I29V, S31R, Y32S, N34A
notes: tested with human Fc; also called MIAB174-001
B7: MIAB177 (antibody, V domains shown)
VH: B1 VH with I48V, Y50A, D54S, S55G, Y57S, N59Y
VL: B1 VL with I29V, S31R, Y32S, N34A
notes: tested with human Fc; also called MIAB177-001
B8: PMAB2 (bispecific antibody, human IgG1, kappa)
heavy: EVQLLESGGGLVQPGGSLRLSCAASGFTFSNSDMSWVRQAPGKGLEWVSGITISGGSTYYADSVKGRFTISRDNSKNTLYLQMNSLRAEDTAVYYCARGRGGSGWLDYWGQGTLVTVSSASTKGPSVFPLAPSSKSTSGGTAALGCLVKDYFPEPVTVSWNSGALTSGVHTFPAVLQSSGLYSLSSVVTVPSSSLGTQTYICNVNHKPSNTKVDKKVEPKSCDKTHTCPPCPAPEAAGAPSVFLFPPKPKDTLMISRTPEVTCVVVDVSHEDPEVKFNWYVDGVEVHNAKTKPREEQYNSTYRVVSVLTVLHQDWLNGKEYKCKVSNKALPAPIEKTISKAKGQPREPQVYTLPPSREEMTKNQVSLTCLVKGFYPSDIAVEWESNGQPENNYKTTPPVLDSDGSFFLYSKLTVDKSRWQQGNVFSCSVMHEALHNHYTQKSLSLSPGGGGGSGGGGSGGGGSEVQLLESGGGLVQPGGSLRLSCAASGFTFSSYWMHWVRQAPGKGLEWVSAISGSSGSTYYADSVKGRFTISRDNSKNTLYLQMNSLRAEDTAVYYCARDRPYGYYMDVWGKGTTVTVSSGGGGSGGGGSGGGGSGGGGSDIQMTQSPSSLSASVGDRVTITCRASQSISSSLAWYQQKPGKAPKLLIYAASSLQSGVPSRFSGSGSGTDFTLTISSLQPEDFATYYCQQYKSYPVTFGQGTKVEIK
light: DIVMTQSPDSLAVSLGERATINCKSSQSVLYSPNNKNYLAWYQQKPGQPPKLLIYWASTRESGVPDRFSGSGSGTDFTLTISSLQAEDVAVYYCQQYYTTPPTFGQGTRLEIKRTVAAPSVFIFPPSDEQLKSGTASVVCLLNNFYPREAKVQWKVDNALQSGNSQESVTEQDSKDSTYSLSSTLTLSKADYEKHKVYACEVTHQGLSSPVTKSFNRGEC
B9: PMAB3 (bispecific antibody, human IgG1, kappa)
heavy: B8 heavy with G566Y
light: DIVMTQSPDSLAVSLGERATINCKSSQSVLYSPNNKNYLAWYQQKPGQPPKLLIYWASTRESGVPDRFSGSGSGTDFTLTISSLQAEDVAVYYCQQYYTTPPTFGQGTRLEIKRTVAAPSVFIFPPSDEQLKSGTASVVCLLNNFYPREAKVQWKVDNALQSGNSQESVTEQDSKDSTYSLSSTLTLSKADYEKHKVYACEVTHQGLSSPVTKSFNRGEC
B10: PMAB10 (bispecific antibody, human IgG1, kappa)
heavy: B8 heavy with S518G
light: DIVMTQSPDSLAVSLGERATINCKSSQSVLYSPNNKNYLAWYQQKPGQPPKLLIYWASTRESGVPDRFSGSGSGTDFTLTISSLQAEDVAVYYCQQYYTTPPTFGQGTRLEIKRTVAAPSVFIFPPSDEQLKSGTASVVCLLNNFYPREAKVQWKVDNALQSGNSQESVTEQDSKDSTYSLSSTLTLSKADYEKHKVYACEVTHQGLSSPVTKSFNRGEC
B11: PMAB46 (bispecific antibody, human IgG1, kappa)
heavy: B8 heavy with S494D, Y495F, V511I, A513Y, S517D, S520Y, Y522N, I631V, S633R
light: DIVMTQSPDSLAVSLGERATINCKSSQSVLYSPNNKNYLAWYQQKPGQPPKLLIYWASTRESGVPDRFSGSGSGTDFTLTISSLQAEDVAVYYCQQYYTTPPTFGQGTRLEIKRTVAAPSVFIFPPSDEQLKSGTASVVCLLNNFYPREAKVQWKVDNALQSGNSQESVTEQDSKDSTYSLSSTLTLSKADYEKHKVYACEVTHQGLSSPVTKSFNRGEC
B12: PMAB47 (bispecific antibody, human IgG1, kappa)
heavy: B8 heavy with S494D, Y495F, V511I, A513Y, S517D, S520Y, Y522N, G566N, I631V, S633R
light: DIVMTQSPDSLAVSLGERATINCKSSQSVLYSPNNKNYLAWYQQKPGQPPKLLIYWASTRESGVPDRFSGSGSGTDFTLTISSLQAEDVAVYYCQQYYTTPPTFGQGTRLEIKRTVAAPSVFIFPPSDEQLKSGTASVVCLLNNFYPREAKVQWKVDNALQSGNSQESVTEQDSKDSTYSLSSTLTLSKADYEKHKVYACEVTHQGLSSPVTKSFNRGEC
B13: PMAB6 (bispecific antibody, human IgG1, kappa)
heavy: B8 heavy with V511I, S518G
light: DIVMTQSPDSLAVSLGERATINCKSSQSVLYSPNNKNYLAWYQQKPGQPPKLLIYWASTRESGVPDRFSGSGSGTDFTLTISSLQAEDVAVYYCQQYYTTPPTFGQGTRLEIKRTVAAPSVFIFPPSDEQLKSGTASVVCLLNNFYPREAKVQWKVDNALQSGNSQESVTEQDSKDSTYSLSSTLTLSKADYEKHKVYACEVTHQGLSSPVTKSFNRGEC
B14: PMAB51 (bispecific antibody, human IgG1, kappa)
heavy: EVQLLESGGGLVQPGGSLRLSCAASGFTFSNSDMSWVRQAPGKGLEWVSGITISGGSTYYADSVKGRFTISRDNSKNTLYLQMNSLRAEDTAVYYCARGRGGSGWLDYWGQGTLVTVSSASTKGPSVFPLAPSSKSTSGGTAALGCLVKDYFPEPVTVSWNSGALTSGVHTFPAVLQSSGLYSLSSVVTVPSSSLGTQTYICNVNHKPSNTKVDKKVEPKSCDKTHTCPPCPAPEAAGAPSVFLFPPKPKDTLMISRTPEVTCVVVDVSHEDPEVKFNWYVDGVEVHNAKTKPREEQYNSTYRVVSVLTVLHQDWLNGKEYKCKVSNKALPAPIEKTISKAKGQPREPQVYTLPPSREEMTKNQVSLTCLVKGFYPSDIAVEWESNGQPENNYKTTPPVLDSDGSFFLYSKLTVDKSRWQQGNVFSCSVMHEALHNHYTQKSLSLSPGGGGGSGGGGSGGGGSEVQLLESGGGLVQPGGSLRLSCAASGFTFSDFWMHWVRQAPGKGLEWISYISGDSGYTNYADSVKGRFTISRDNSKNTLYLQMNSLRAEDTAVYYCARDRPYYYKMDVWGKGTTVTVSSGGGGSGGGGSGGGGSGGGGSDIQMTQSPSSLSASVGDRVTITCRASQSVSRSLAWYQQKPGKAPKLLIYAASSLQSGVPSRFSGSGSGTDFTLTISSLQPEDFATYYCQQYKSYPVTFGQGTKVEIK
light: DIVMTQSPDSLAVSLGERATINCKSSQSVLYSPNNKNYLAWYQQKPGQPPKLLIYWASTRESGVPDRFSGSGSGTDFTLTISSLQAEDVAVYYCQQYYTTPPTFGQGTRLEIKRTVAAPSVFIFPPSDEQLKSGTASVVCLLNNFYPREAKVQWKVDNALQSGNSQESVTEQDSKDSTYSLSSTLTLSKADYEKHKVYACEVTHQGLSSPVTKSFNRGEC
B15: PMAB4 (bispecific antibody, human IgG1, kappa)
heavy: B8 heavy with S633R
light: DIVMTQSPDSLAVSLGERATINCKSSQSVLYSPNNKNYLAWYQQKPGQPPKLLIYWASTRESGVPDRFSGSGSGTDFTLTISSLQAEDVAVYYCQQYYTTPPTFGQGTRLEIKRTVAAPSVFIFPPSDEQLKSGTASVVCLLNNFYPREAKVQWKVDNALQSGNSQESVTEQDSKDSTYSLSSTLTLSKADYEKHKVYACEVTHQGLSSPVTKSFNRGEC
B16: PMAB49 (bispecific antibody, human IgG1, kappa)
heavy: B14 heavy with K568D
light: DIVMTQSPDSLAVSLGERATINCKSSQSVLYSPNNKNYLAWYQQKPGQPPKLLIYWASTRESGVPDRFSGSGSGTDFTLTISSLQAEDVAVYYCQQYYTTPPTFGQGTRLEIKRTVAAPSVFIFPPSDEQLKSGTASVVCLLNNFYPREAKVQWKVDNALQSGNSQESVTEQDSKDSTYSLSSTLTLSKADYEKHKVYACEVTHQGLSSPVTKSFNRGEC
B17: PMAB11 (bispecific antibody, human IgG1, kappa)
heavy: B8 heavy with S518G, G566Y
light: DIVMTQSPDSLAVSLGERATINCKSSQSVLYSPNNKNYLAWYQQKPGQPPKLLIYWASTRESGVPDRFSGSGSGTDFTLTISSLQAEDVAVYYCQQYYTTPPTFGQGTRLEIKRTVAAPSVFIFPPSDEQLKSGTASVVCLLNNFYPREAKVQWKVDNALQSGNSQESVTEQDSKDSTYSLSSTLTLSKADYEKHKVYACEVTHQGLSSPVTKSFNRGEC
B18: PMAB43 (bispecific antibody, human IgG1, kappa)
heavy: B14 heavy with K568Y, V698R
light: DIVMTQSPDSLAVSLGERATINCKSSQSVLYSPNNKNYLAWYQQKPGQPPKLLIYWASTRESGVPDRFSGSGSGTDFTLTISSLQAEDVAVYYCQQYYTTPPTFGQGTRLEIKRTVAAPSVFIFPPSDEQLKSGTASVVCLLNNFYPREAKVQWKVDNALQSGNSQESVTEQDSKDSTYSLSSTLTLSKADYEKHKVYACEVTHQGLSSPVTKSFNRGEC
B19: PMAB8 (bispecific antibody, human IgG1, kappa)
heavy: B8 heavy with V511I, S518G, S633R
light: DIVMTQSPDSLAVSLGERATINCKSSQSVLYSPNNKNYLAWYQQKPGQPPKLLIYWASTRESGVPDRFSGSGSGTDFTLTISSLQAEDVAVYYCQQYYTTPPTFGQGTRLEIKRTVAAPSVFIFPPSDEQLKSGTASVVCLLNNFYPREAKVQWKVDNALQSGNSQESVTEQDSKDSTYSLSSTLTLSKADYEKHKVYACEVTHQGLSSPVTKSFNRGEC
B20: PMAB7 (bispecific antibody, human IgG1, kappa)
heavy: B8 heavy with V511I, S518G, G566Y
light: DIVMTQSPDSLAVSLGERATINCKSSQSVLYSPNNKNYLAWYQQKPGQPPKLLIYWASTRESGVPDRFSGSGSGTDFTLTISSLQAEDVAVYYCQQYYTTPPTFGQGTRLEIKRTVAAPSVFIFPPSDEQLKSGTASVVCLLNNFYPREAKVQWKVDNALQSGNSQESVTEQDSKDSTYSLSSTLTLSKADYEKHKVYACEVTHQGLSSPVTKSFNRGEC
B21: PMAB21 (bispecific antibody, human IgG1, kappa)
heavy: B14 heavy with W496A, K568Y
light: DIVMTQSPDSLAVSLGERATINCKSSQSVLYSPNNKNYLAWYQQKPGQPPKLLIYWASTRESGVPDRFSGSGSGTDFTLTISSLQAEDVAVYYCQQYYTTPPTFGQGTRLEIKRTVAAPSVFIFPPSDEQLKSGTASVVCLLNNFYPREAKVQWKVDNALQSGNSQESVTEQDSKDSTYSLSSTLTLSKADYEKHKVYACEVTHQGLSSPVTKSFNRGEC
B22: PMAB13 (bispecific antibody, human IgG1, kappa)
heavy: B8 heavy with S518G, G566Y, S633R
light: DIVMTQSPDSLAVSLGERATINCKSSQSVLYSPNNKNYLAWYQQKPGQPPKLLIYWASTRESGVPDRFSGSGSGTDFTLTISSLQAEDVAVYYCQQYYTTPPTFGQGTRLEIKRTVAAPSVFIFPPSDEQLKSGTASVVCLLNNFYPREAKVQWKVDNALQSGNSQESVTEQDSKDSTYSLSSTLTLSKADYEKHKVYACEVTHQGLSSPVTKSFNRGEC
B23: PMAB12 (bispecific antibody, human IgG1, kappa)
heavy: B8 heavy with S518G, S633R
light: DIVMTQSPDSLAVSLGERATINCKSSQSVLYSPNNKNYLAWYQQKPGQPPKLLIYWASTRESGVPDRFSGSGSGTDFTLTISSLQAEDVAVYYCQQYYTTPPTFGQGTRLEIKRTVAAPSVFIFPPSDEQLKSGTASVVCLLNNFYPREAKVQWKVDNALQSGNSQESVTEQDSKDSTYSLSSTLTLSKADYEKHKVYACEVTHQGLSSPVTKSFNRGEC
B24: PMAB38 (bispecific antibody, human IgG1, kappa)
heavy: B14 heavy with K568Y, S634Y
light: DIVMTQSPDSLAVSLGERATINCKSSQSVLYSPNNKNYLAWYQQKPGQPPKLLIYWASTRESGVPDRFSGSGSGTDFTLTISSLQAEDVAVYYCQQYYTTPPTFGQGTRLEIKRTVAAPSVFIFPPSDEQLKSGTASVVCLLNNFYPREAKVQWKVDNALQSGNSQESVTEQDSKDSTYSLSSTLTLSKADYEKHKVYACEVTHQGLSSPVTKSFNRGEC
B25: PMAB9 (bispecific antibody, human IgG1, kappa)
heavy: B8 heavy with V511I, S518G, G566Y, S633R
light: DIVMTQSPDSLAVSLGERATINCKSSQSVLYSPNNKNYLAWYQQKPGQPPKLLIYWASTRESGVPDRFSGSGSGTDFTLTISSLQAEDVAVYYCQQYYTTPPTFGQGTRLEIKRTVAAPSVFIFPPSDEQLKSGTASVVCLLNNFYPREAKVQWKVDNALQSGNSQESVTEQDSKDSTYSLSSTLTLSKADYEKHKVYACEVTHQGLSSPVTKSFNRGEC
B26: PMAB5 (bispecific antibody, human IgG1, kappa)
heavy: B8 heavy with G566Y, S633R
light: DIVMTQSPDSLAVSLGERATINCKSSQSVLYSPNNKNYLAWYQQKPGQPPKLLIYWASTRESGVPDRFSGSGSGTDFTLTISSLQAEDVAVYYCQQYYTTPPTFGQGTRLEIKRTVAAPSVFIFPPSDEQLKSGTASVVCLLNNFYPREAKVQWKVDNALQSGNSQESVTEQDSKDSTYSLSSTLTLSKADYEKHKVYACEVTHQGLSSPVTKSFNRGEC
B27: PMAB39 (bispecific antibody, human IgG1, kappa)
heavy: B14 heavy with K568Y, A636N
light: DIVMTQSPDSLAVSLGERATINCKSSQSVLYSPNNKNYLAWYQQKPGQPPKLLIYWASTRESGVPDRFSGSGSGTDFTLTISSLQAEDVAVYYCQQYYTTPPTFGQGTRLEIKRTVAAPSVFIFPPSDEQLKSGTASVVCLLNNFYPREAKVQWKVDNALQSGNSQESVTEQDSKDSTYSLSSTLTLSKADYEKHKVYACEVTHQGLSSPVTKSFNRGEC

Molecular target: T1, human MAdCAM
Assay: BLI (Octet), binder on anti-human Fc tips

Row | binding result | Kd | fold reduction of affinity against PRNT1 | koff | kon | Binder
1 | no binding (tested: 150 nM) |  |  |  |  | B1
2 |  | 362 nM | 20 fold |  |  | B2
3 |  | 119 nM | 10 fold | 0.0267 s⁻¹ | 226000 M⁻¹ s⁻¹ | B3
4 |  | 22.6 nM |  | 0.0106 s⁻¹ | 471000 M⁻¹ s⁻¹ | B4
5 |  | 519 nM |  | 0.22 s⁻¹ | 372000 M⁻¹ s⁻¹ | B5
6 |  | 21.8 nM |  | 0.00969 s⁻¹ | 445000 M⁻¹ s⁻¹ | B6
7 |  | 218 nM |  | 0.0851 s⁻¹ | 391000 M⁻¹ s⁻¹ | B7

Molecular target: T1, human MAdCAM
Assay: BLI (Octet), binder on AHC tips
Summary of the method: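 Binding was measured on an Octet96 RED instrument using anti-human IgG Fc biosensors, which were first equilibrated in assay buffer for 20 minutes. The tips were then loaded for 240 s with test article at 10 μg/mL in assay buffer, exposed to MAdCAM-1 for 120 s of association, and returned to assay buffer for 120 s of dissociation, with MAdCAM-1 run as a seven-point serial dilution from 200 nM to 3.13 nM. Kinetic rates and the dissociation constant were derived by a global one-to-one fit in the Octet data analysis software.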

Row | Kd | koff | kon | Binder | binding result
8 | 175 nM | 0.127 s⁻¹ | 725000 M⁻¹ s⁻¹ | B8 | 
9 | 333 nM | 0.239 s⁻¹ | 717000 M⁻¹ s⁻¹ | B9 | 
10 | 146 nM | 0.0967 s⁻¹ | 662000 M⁻¹ s⁻¹ | B10 | 
11 | 37900 nM | 0.309 s⁻¹ | 8160 M⁻¹ s⁻¹ | B11 | 
12 | 219 nM | 0.072 s⁻¹ | 329000 M⁻¹ s⁻¹ | B12 | 
13 | 150 nM | 0.105 s⁻¹ | 698000 M⁻¹ s⁻¹ | B13 | 
14 | 93.5 nM | 0.00952 s⁻¹ | 115000 M⁻¹ s⁻¹ | B14 | 
15 | 41.8 nM | 0.0547 s⁻¹ | 1.31e+06 M⁻¹ s⁻¹ | B15 | 
16 | 142 nM | 0.0125 s⁻¹ | 87900 M⁻¹ s⁻¹ | B16 | 
17 | 466 nM | 0.195 s⁻¹ | 419000 M⁻¹ s⁻¹ | B17 | 
18 |  |  |  | B18 | no binding (tested: 200 nM (top of the dilution series))
19 | 71.4 nM | 0.0469 s⁻¹ | 656000 M⁻¹ s⁻¹ | B19 | 
20 | 236 nM | 0.136 s⁻¹ | 576000 M⁻¹ s⁻¹ | B20 | 
21 |  |  |  | B21 | no binding (tested: 300 nM (top of the dilution series))
22 | 132 nM | 0.0717 s⁻¹ | 542000 M⁻¹ s⁻¹ | B22 | 
23 | 63.3 nM | 0.0464 s⁻¹ | 733000 M⁻¹ s⁻¹ | B23 | 
24 |  |  |  | B24 | no binding (tested: 200 nM (top of the dilution series))
25 | 159 nM | 0.0725 s⁻¹ | 455000 M⁻¹ s⁻¹ | B25 | 
26 | 413 nM | 0.12 s⁻¹ | 290000 M⁻¹ s⁻¹ | B26 | 
27 |  |  |  | B27 | no binding (tested: 200 nM (top of the dilution series))
